Laboratory results taken from paper PMC4159138, “Fission Yeast Pxd1 Promotes Proper DNA Repair by Activating Rad16^XPF and Inhibiting Dna2” (PLoS Biology, 2014).

Tests used:
[1] = target: Dna2;Cdc24-YFH;RPA (Schizosaccharomyces …, UniProt Q9URU2;O75004;Q92372;Q92373;Q92374 1-1397;1-501;1-609;1-279;1-104, ||); test: EMSA; 1 mM EDTA; supershifted higher-order complex, no Pxd1; 50 mM Tris-HCl pH 7.5, 1 mM EDTA, 1 mM DTT, 0.1 mg/ml BSA, 50 mM NaCl, 5% glycerol, 15 fmol DNA in 10 µl, room temperature 30 min; 5% PAGE in 1x TBE; conditions: protein: native;native;recombinant; tags: none stated (co-expressed with Cdc24-YFH);YFP-FLAG-His6;6xHis-GST on Rpa1 in plasmid pDB2129; copies: 1;1;1;1;1; label: 5' 32P on oligo461; 18 bp duplex with 5' overhang 31 nt on oligo461
[2] = target: Dna2;Cdc24-YFH (Schizosaccharomyces …, UniProt Q9URU2;O75004 1-1397;1-501, |); test: EMSA; 1 mM EDTA, no divalent cations; 100-300 ng Dna2-Cdc24; 50 mM Tris-HCl pH 7.5, 1 mM EDTA, 1 mM DTT, 0.1 mg/ml BSA, 50 mM NaCl, 5% glycerol, 15 fmol DNA in 10 µl, room temperature 30 min; 5% PAGE in 1x TBE; conditions: protein: native;native; tags: none stated (co-expressed with Cdc24-YFH);YFP-FLAG-His6; copies: 1;1; label: 5' 32P on oligo461; 18 bp duplex with 5' overhang 31 nt on oligo461
Chain of Dna2;Cdc24-YFH (Q9URU2 whole entry, chain 1 of 2): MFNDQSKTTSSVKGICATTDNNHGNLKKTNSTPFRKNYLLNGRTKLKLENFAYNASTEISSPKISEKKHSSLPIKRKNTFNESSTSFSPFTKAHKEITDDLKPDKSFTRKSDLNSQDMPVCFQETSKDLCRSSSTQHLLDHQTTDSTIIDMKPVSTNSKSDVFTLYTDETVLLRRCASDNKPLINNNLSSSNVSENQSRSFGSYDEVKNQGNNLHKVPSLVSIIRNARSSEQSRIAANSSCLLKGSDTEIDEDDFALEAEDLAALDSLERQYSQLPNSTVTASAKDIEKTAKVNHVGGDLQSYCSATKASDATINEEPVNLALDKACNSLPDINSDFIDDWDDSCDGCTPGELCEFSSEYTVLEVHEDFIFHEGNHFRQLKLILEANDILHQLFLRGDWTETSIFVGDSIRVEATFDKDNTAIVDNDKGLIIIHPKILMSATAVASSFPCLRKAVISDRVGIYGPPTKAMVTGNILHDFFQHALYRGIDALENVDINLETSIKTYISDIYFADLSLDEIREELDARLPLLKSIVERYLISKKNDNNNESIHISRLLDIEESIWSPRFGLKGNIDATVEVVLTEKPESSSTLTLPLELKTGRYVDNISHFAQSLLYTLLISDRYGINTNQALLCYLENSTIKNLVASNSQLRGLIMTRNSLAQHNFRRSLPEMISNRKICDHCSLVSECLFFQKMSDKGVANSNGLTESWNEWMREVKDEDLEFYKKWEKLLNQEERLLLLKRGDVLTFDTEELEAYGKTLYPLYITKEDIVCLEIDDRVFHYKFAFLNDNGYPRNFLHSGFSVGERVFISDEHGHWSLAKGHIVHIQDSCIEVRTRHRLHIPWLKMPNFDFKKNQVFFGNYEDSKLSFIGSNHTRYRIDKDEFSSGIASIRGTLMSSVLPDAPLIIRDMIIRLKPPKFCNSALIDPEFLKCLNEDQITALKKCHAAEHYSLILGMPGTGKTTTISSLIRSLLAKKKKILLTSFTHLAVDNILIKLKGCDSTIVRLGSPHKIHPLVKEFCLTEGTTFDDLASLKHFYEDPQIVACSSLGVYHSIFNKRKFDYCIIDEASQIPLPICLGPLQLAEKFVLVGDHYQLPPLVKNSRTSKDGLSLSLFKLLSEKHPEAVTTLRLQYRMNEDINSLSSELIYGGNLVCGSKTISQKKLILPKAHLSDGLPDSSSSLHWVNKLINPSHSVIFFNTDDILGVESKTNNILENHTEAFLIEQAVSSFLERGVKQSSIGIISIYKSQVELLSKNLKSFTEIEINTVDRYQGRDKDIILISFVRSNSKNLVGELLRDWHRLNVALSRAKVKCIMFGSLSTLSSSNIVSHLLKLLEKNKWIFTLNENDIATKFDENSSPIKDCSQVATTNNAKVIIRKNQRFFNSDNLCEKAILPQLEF
Chain of Dna2;Cdc24-YFH (O75004 whole entry, chain 2 of 2): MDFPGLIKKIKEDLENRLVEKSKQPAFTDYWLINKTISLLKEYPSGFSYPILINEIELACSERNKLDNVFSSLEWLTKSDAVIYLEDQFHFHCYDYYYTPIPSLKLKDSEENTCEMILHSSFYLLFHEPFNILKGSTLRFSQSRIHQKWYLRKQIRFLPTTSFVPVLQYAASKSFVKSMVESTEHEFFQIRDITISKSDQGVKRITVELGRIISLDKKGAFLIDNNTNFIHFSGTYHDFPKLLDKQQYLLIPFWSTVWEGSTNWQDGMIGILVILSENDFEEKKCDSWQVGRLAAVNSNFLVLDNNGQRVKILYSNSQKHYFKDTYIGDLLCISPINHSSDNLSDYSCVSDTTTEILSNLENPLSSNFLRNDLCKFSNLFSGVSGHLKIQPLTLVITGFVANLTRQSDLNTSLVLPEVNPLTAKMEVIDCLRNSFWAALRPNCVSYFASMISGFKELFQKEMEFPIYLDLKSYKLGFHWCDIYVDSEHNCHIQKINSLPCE

B1: 5' overhang DNA (oligo461/oligo463) (dsDNA)
DNA 1: CACGCTACCGAATTCTGACTTGCTAGGACATCTTTGCCCACGTTGACCC
DNA 2: GGGTCAACGTGGGCAAAG
[1]
  binding result: binds
[2]
  binding result: binds
